From patent US20250099622A1, “COMPOSITIONS AND METHODS FOR EXPRESSING THERAPEUTICS” (priority 2022, published 2025)

How the values were obtained:
Human NPR-B = target: T1, Human NPR-B (Homo sapiens, UniProt P20594); test: Biacore SPR kinetic affinity binding to immobilized NPR-B; conditions: Table 32 summary of affinity
T1 construct: purchased R&D system
T1 sequence (P20594 23-458 limits assumed): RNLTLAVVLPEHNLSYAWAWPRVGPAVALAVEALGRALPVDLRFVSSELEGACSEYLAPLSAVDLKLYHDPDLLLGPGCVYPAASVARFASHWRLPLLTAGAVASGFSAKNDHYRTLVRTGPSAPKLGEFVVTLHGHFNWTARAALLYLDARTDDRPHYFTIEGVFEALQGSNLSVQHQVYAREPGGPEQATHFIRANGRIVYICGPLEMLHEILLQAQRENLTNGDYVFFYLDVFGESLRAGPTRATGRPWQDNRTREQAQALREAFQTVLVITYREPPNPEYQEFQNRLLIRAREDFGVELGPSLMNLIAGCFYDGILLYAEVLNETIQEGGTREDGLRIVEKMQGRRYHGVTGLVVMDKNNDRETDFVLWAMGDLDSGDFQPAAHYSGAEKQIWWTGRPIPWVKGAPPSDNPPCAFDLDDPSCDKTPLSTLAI
Protocol: The biological function of these purified protein was assayed for their stimulation of production of cGMP, using NPR-B receptor positive cell line, NIH/3T3 and NPR-B negative cell line HEK293 cells. The determination of cGMP was assay by ELISA using commercial CNP as standard curves. […] Surface preparation. NBR-B was immobilized at different levels in three flow cells via standard amine coupling, leaving Fc 1 unmodified to serve as a reference. All surface plasmon resonance (SPR) analysis was performed on a BIAcore 3000 system using series CM5 sensor chips. Data processing and analysis were performed using BIAevaluation software. All sensorgrams were double referenced by subtracting the response on a reference flow cell and a blank sample. Human NPR-B (R&D system) was covalently attached to a CM5 chip via amine coupling. A surface density of 6600 RU was used for measurements with natriuretic peptides Sequential injections of CNP (0.5-8 nM) were performed at a flow rate of […] (300 s for each), followed by a dissociation time of 900 s. […] Kinetic parameters were calculated assuming a simple 1:1 (Langmuir) binding. […] All SPR analysis was performed on a BIAcore 3000 system using series CM5 sensor chips. Data processing and analysis were performed using BIAevaluation software. All sensorgrams were double referenced by subtracting the response on a reference flow cell and a blank sample. Human NPR-B (R&D system) was covalently attached to a CM5 chip via amine coupling. A surface density of 3100 RU was used for measurements with natriuretic peptides Sequential injections of AMI263 (FC4-CNP) (0.125-2 nM) were performed at a flow rate of […] (300 s for each), followed by a dissociation time of 900 s. […] Kinetic parameters were calculated assuming a simple 1:1 (Langmuir) binding. […] All SPR analysis was performed on a BIAcore 3000 system using series CM5 sensor chips. Data processing and analysis were performed using BIAevaluation software. All sensorgrams were double referenced by subtracting the response on a reference flow cell and a blank sample. Human NPR-B (R&D system) was covalently attached to a CM5 chip via amine coupling. […] Kinetic parameters were calculated assuming a simple 1:1 (Langmuir) binding. […] All SPR analysis was performed on a BIAcore 3000 system using series CM5 sensor chips. Data processing and analysis were performed using BIAevaluation software. All sensorgrams were double referenced by subtracting the response on a reference flow cell and a blank sample. Human NPR-B (R&D system) was covalently attached to a CM5 chip via amine coupling. A surface density of 3100 RU was used for measurements with natriuretic peptides Sequential injections of AMI263 (FC4-CNP) (0.5-300 nM) were performed at a flow rate of […] (300 s for each), followed by a dissociation time of 900 s. […] Kinetic parameters were calculated assuming a simple 1:1 (Langmuir) binding. […] All SPR analysis was performed on a BIAcore 3000 system using series CM5 sensor chips. Data processing and analysis were performed using BIAevaluation software. All sensorgrams were double referenced by subtracting the response on a reference flow cell and a blank sample. Human NPR-B (R&D system) was covalently attached to a CM5 chip via amine coupling.

[1] = target: T2, NPR-B receptor positive cell line, NIH/3T3 (Mus musculus, UniProt Q6VVW5); test: Stimulation of cGMP production in NPR-B positive cells (cGMP ELISA); type: cell-based; conditions: FIG. 7A
T2 construct: natrieuretic peptide type C receptor B (NPR-B) positive cell line, NIH/3T3 and the negative cell line of HEK293 cells; endogenous in cells; host or cells: NIH/3T3
T2 sequence (Q6VVW5 17-1047): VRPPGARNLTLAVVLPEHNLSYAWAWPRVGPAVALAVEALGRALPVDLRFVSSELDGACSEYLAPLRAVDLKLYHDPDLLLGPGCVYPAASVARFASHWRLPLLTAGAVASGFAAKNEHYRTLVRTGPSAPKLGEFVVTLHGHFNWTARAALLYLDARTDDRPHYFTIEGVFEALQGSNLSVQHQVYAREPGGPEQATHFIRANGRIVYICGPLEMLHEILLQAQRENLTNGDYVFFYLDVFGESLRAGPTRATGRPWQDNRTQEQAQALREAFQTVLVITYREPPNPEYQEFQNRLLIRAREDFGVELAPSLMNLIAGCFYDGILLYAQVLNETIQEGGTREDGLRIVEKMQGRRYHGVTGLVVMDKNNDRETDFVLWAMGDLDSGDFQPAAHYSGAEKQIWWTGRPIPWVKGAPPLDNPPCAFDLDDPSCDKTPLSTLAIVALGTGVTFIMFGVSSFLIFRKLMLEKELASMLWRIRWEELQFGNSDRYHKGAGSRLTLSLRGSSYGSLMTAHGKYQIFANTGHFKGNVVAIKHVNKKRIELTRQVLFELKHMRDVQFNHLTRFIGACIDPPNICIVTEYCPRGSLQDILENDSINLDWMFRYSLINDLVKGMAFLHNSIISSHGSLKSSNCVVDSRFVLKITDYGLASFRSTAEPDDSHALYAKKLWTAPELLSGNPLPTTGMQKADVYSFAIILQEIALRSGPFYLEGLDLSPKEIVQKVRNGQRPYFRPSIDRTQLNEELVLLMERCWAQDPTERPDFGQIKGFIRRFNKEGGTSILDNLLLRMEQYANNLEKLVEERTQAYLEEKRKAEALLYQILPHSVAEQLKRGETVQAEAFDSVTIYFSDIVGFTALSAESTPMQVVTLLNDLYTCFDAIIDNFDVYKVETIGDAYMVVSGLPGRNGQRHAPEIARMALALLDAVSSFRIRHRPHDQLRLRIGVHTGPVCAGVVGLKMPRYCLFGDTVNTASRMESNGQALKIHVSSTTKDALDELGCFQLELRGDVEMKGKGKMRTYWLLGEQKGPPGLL
Protocol: The biological function of these purified protein was assayed for their stimulation of production of cGMP, using NPR-B receptor positive cell line, NIH/3T3 and NPR-B negative cell line HEK293 cells. The determination of cGMP was assay by ELISA using commercial CNP as standard curves. […] Surface preparation. NBR-B was immobilized at different levels in three flow cells via standard amine coupling, leaving Fc 1 unmodified to serve as a reference. All surface plasmon resonance (SPR) analysis was performed on a BIAcore 3000 system using series CM5 sensor chips. Data processing and analysis were performed using BIAevaluation software. All sensorgrams were double referenced by subtracting the response on a reference flow cell and a blank sample. Human NPR-B (R&D system) was covalently attached to a CM5 chip via amine coupling. A surface density of 6600 RU was used for measurements with natriuretic peptides Sequential injections of CNP (0.5-8 nM) were performed at a flow rate of […] (300 s for each), followed by a dissociation time of 900 s. […] Kinetic parameters were calculated assuming a simple 1:1 (Langmuir) binding. […] Kinetic parameters were calculated assuming a simple 1:1 (Langmuir) binding. […] Kinetic parameters were calculated assuming a simple 1:1 (Langmuir) binding. […] Kinetic parameters were calculated assuming a simple 1:1 (Langmuir) binding. […]

Q: With “AMI088: purified fusion protein Fc1-(G4S)4-CNP36 (IgG1 Fc), SEQ ID NO: 133” as the substance, how does the ka (Human NPR-B) read?
A: 4.09E+07

Q: And the kd (Human NPR-B)?
A: 2.96E−05

Q: What about the “cGMP production stimulated by AAV vector encoded CNP or CNP-Fc” value [1] of the same substance?
A: highest level of cGMP
